This note sets out measurements from US9266964.

Sequences and labels used below:
B1: M206-A06 (Fab, V domains shown)
VH: EVQLLESGGGLVQPGGSLRLSCAASGFTFSNYMMGWVRQAPGKGLQWVSSISPSGGLTKYADSVKGRFTISRDNSKNTLYLQMNSLRAEDTAVYYCARVARGIAARSRTSYFDYWGQGTLVTVSS
VL: DIQMTQSPGTLSLSPGERATLSCRTSQFVNSNYLAWYQQTPGQAPRLLIYGASSRATGIPDRFSGTGYGTDFTLTISRLEPEDYGTYYCQQSSRTPWTFGQGTRVEIK
B2: M206-H01 (Fab, V domains shown)
VH: EVQLLESGGGLVQPGGSLRLSCAASGFTFSEYMMVWVRQAPGKGLEWVSRISPSGGTTEYADSVKGRFTISRDNSKNTLYLQMNSLRAEDTAVYYCARVARGIAARSRTSYFDYWGQGTLVTVSS
VL: DIQMTQSPGTLSLSPGERATLSCRTSQFVNSNYLAWYQQTPGQAPRLLIYGASSRATGIPDRFSGTGYGTDFTLTISRLEPEDYGTYYCQQSSRTPWTFGQGTRVEIK
B3: M209-G07 (Fab, V domains shown)
VH: EVQLLESGGGLVQPGGSLRLSCAASGFTFSHYLMTWVRQAPGKGLEWVSYISPSGGHTIYADSVKGRFTISRDNSKNTLYLQMNSLRAEDTAVYYCARVARGIAARSRTSYFDTWGQGTLVTVSS
VL: DIQMTQSPGTLSLSPGERATLSCRTSQFVNSNYLAWYQQTPGQAPRLLIYGASSRATGIPDRFSGTGYGTDFTLTISRLEPEDYGTYYCQQSSRTPWTFGQGTRVEIK
B4: M209-B11 (Fab, V domains shown)
VH: EVQLLESGGGLVQPGGSLRLSCAASGFTFSHYLMTWVRQAPGKGLEWVSYISPSGGHTIYADSVKGRFTISRDNSKNTLYLQMNSLRAEDTAVYYCARVARGIAARSRTRYIDQWGQGTLVTVSS
VL: DIQMTQSPGTLSLSPGERATLSCRTSQFVNSNYLAWYQQTPGQAPRLLIYGASSRATGIPDRFSGTGYGTDFTLTISRLEPEDYGTYYCQQSSRTPWTFGQGTRVEIK
B5: M204-A02 (Fab, V domains shown)
VH: EVQLLESGGGLVQPGGSLRLSCAASGFTFSDYMMTWVRQAPGKGLQWVSYISPSGGLTSYADSVKGRFTISRDNSKNTLYLQMNSLRAEDTAVYYCARVARGIAARSRTSYFDYWGQGTLVTVSS
VL: DIQMTQSPGTLSLSPGERATLSCRTSQFVNSNYLAWYQQTPGQAPRLLIYGASSRATGIPDRFSGTGYGTDFTLTISRLEPEDYGTYYCQQSSRTPWTFGQGTRVEIK
B6: M208-G02 (Fab, V domains shown)
VH: EVQLLESGGGLVQPGGSLRLSCAASGFTFSHYLMTWVRQAPGKGLEWVSYISPSGGHTIYADSVKGRFTISRDNSKNTLYLQMNSLRAEDTAVYYCARVARGIADRSRTSYSDYWGQGTLVTVSS
VL: DIQMTQSPGTLSLSPGERATLSCRTSQFVNSNYLAWYQQTPGQAPRLLIYGASSRATGIPDRFSGTGYGTDFTLTISRLEPEDYGTYYCQQSSRTPWTFGQGTRVEIK
B7: M209-C02 (Fab, V domains shown)
VH: EVQLLESGGGLVQPGGSLRLSCAASGFTFSHYLMTWVRQAPGKGLEWVSYISPSGGHTIYADSVKGRFTISRDNSKNTLYLQMNSLRAEDTAVYYCARVARGIAYRRRTSYFDYWGQGTLVTVSS
VL: DIQMTQSPGTLSLSPGERATLSCRTSQFVNSNYLAWYQQTPGQAPRLLIYGASSRATGIPDRFSGTGYGTDFTLTISRLEPEDYGTYYCQQSSRTPWTFGQGTRVEIK
B8: M206-F09 (Fab, V domains shown)
VH: EVQLLESGGGLVQPGGSLRLSCAASGFTFSVYMMSWVRQAPGKGLEWVSSIVPSGGSTTYADSVKGRFTISRDNSKNTLYLQMNSLRAEDTAVYYCARVARGIAARSRTSYFDYWGQGTLVTVSS
VL: DIQMTQSPGTLSLSPGERATLSCRTSQFVNSNYLAWYQQTPGQAPRLLIYGASSRATGIPDRFSGTGYGTDFTLTISRLEPEDYGTYYCQQSSRTPWTFGQGTRVEIK
B9: M208-B01 (Fab, V domains shown)
VH: EVQLLESGGGLVQPGGSLRLSCAASGFTFSHYLMTWVRQAPGKGLEWVSYISPSGGHTIYADSVKGRFTISRDNSKNTLYLQMNSLRAEDTAVYYCARVARGIAARSRTSFFDQWGQGTLVTVSS
VL: DIQMTQSPGTLSLSPGERATLSCRTSQFVNSNYLAWYQQTPGQAPRLLIYGASSRATGIPDRFSGTGYGTDFTLTISRLEPEDYGTYYCQQSSRTPWTFGQGTRVEIK
B10: M207-A04 (Fab, V domains shown)
VH: EVQLLESGGGLVQPGGSLRLSCAASGFTFSHYLMTWVRQAPGKGLEWVSYISPSGGHTIYADSVKGRFTISRDNSKNTLYLQMNSLRAEDTAVYYCARVARGIAARSRTRSFDYWGQGTLVTVSS
VL: DIQMTQSPGTLSLSPGERATLSCRTSQFVNSNYLAWYQQTPGQAPRLLIYGASSRATGIPDRFSGTGYGTDFTLTISRLEPEDYGTYYCQQSSRTPWTFGQGTRVEIK
B11: M8-E06 (Fab, V domains shown)
VH: EVQLLESGGGLVQPGGSLRLSCAASGFTFSHYFMTWVRQAPGKGLEWVSSIVPSGGMTQYADSVKGRFTISRDNSKNTLYLQMNSLRAEDTAVYYCARDSYSSSWFDIWGQGTMVTVSS
VL: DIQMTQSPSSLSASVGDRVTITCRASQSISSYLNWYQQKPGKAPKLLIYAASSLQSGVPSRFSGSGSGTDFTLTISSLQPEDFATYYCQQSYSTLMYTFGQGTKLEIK
notes: Fab fragment (E. coli TG1); printed HC runs into the start of CH1
B12: M6-A06 (Fab, V domains shown)
VH: EVQLLESGGGLVQPGGSLRLSCAASGFTFSLYQMTWVRQAPGKGLEWVSGIWPSGGFTDYADSVKGRFTISRDNSKNTLYLQMNSLRAEDTAVYYCARVSTAVADNDYWGQGTLVTVSS
VL: DIQMTQSPSSLSASVGDSVTISCRASQSISMYLNWYQHKPGKAPKLLIYGTSSLQSGVPSRFSGSGPGGTDFTLTISSLQPEDFATYYCQQSYSAPWTFGQGTKVEIK
notes: as for B11
B13: M6-D03 (Fab, V domains shown)
VH: EVQLLESGGGLVQPGGSLRLSCAASGFTFSKYFMGWVRQAPGKGLEWVSVIGSSGGWTSYADSVKGRFTISRDNSKNTLYLQMNSLRAEDTAVYYCARVSTAVADNDYWGQGTLVTVSS
VL: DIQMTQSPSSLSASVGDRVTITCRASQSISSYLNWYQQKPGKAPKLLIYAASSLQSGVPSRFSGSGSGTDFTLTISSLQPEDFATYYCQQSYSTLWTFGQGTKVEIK
notes: as for B11
B14: M6-A08 (Fab, V domains shown)
VH: EVQLLESGGGLVQPGGSLRLSCAASGFTFSPYPMQWVRQAPGKGLEWVSSISSSGGMTEYADSVKGRFTISRDNSKNTLYLQMNSLRAEDTAVYYCARDDYGGKGGAFDIWGQGTMVTVSS
VL: DIQMTQSPSSLSASVGDRVTITCRASQRISFYLNWFQQKPGKAPNLLIYGASSLQSGVPSRFSGSGSGTDFTLTISSLQPKDFGTYYCQQTFSTPNTFGQGTKLEIK
notes: as for B11
B15: M8-C04 (Fab, V domains shown)
VH: EVQLLESGGGLVQPGGSLRLSCAASGFTFSYYPMQWVRQAPGKGLEWVSYIYPSGGLTSYADSVKGRFTISRDNSKNTLYLQMNSLRAEDTAVYYCARLFYGSGSVGFEYWGQGTLVTVSS
VL: QSALTQPPSVSVSPGQTASITCSGDKLGDKYTSWHQQKPGQSPVLVIYQDSKRPSGIPERFSGSNSGNTATLTISGTQAMDEADYYCQAWDSSTVFGGGTRLTVL
notes: as for B11
B16: M8-H04 (Fab, V domains shown)
VH: EVQLLESGGGLVQPGGSLRLSCAASGFTFSGYWMGWVRQAPGKGLEWVSSISSSGGWTQYADSVKGRFTISRDNSKNTLYLQMNSLRAEDTATYYCARDDEIAAGGAFDIWGQGAMVTVSS
VL: DIQMTQSPSSLSASIGDRVTITCRASQYISTYLNWYEQKPGKAPKLLIYGTSSLQSGVPSRFSGSGSGTEFSLTISSLQPEDFATYYCQQSFTTPFTFGQGTKLEIK
notes: as for B11
B17: M6-G05 (Fab, V domains shown)
VH: EVQLLESGGGLVQPGGSLRLSCAASGFTFSRYRMVWVRQAPGKGLEWVSSIYPSGGMTAYADSVKGRFTISRDNSKNTLYLQMNSLRAEDTAVYYCARDAVGIGDAFDIWGQGTMVTVSS
VL: DIQMTQSPSSLSASVGDRVTITCRASQSISTYLNWYQLKPGKAPKLLIYNAFSMERGVPSTISGSGSGTDFTLTISSLQPEDFATYYCQQSYTTPTTFGQGTKVEIK
notes: as for B11
B18: M8-G09 (Fab, V domains shown)
VH: EVQLLESGGGLVQPGGSLRLSCAASGFTFSLYEMLWVRQAPGKGLEWVSVIYPSGGYTDYADSVKGRFTISRDNSKNTLYLQMNSLRAEDMAVYYCARSFSGFGEIDYWGQGTLVTVSS
VL: DIQMTQSPSSLSASVGDTVTITCRASQGVSYYLAWFQQKPGKAPKSLIYGASSLQSGVPSKFSGSGSGTVFTLTISSLQPDDFATYYCQQYNTYPPTFGQGTRLDIK
notes: as for B11
B19: M8-D05 (Fab, V domains shown)
VH: EVQLLESGGGLVQPGGSLRLSCAASGFTFSLYNMNWVRQAPGKGLEWVSSISPSGGFTDYADSVKGRFTISRDNSKNTLYLQMNSLRAEDTAVYYCARDLDLGILDYWGQGTLVTVSS
VL: DIQMTQSPSFVSASVGDRVTITCRASQDISSWLVWYQQKPGKGPKLLIYDASNLQSGVPSRFSGGGSGTHFTLTISSLQPEDFATYYCQQADGFPLTFGGGTKVEMK
notes: as for B11
B20: M9-A03 (Fab, V domains shown)
VH: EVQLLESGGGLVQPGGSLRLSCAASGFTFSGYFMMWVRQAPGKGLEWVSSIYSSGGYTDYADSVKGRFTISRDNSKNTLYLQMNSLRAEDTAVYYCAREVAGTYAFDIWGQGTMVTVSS
VL: DIQMTQSPSSLSASLGDRVTITCRASQNIDIYLNWYQQTPGKAPKLLIYGAYNLQSGVPSRFSGSGSGTDFTLTISSLQPEDFGTYYCQQSYGTPVFGQGTKLEIK
notes: as for B11
B21: M6-D08 (Fab, V domains shown)
VH: EVQLLESGGGLVQPGGSLRLSCAASGFTFSRYHMVWVRQAPGKGLEWVSSISPSGGWTNYADSVKGRFTISRDNSKNTLYLQMNSLRAEDTAMYYCAREMATIAGQFDPWGQGTLVTVSS
VL: DIQMTQSPSSLSASVGDRVTITCRASQSISSYLNWYQQKPGKAPKLLIYGASSLQSGVPSRFSGSGSGTDFTLTISSLQPEDSATYYCQQSYTRWTFGQGTKVEIK
notes: Fab fragment (E. coli TG1); printed HC runs into the start of CH1; The LC is printed with an amber codon 'q' (WYqQK), written here as Q

In the first assay the target is human plasma kallikrein (human, UniProt P03952 20-390; P03952 391-638). Briefly: cell-based or functional assay.
Target sequence in this assay (P03952 20-390, chain 1 of 2): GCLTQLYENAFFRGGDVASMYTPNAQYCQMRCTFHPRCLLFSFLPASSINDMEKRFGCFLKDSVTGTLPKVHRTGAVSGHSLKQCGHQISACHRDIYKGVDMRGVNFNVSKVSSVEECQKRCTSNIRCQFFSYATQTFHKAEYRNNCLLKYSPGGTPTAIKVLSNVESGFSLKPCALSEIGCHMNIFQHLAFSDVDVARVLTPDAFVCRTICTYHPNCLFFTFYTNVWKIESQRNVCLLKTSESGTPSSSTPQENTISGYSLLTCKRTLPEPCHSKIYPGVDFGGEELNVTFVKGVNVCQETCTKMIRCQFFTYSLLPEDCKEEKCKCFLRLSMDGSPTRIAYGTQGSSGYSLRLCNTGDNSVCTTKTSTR
Target sequence in this assay (P03952 391-638, chain 2 of 2): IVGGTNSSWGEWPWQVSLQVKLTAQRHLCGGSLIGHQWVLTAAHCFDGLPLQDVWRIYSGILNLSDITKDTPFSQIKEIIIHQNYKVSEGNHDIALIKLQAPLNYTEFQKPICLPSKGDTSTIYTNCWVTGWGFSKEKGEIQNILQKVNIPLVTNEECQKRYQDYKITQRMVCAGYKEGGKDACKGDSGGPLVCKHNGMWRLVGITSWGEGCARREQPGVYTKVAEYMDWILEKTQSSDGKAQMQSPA
Usually % inhibition stands for the drop in the measured response relative to a control, in per cent. The low end stands for a weak effect, the high end for a strong effect. Consider B1, for which the “% inhibition at 10 nM” value was determined as 93%. For the molecule B2, the “% inhibition at 10 nM” value came out at 87.6%. Regarding B3, the “% inhibition at 10 nM” value was 89.8%. As to B4, the “% inhibition at 10 nM” value was determined as 87.3%. Regarding B5, the “% inhibition at 10 nM” value stood at 89.5%. As for B6, the “% inhibition at 10 nM” value amounted to 86.7%. For the molecule B7, the “% inhibition at 10 nM” value worked out at 86.8%. On to B8, for which the “% inhibition at 10 nM” value was found to be 86.8%. With B9, the “% inhibition at 10 nM” value was determined as 90.1%.

Turning to B10, the “% inhibition at 10 nM” value was determined as 90.9%.

For the next assay, the target named is T1, human plasma kallikrein (human, UniProt P03952 20-390; P03952 391-638).
T1 construct: two disulfide-linked chains; also called pKal; human pKal
Description: ELISA; signal on coated biotinylated human plasma kallikrein divided by signal on streptavidin; Fab. The text has this: Abbreviations used: "T/B" is the ELISA signal obtained using of the target (biotinylated plasma kallikrein) divided by the ELISA signal of the "background" (streptavidin); both of which were coated on microtiter plates. "nd" is not determined. The symbol "q" refers to the amber suppressible stop codon (TAG), which is translated as glutamine (Q) in strains of E. coli such as the TG1 cells that were used to express the Fab fragments.
T1 sequence (P03952 20-390, chain 1 of 2): as the sequence (P03952 20-390, chain 1 of 2) above
T1 sequence (P03952 391-638, chain 2 of 2): as the sequence (P03952 391-638, chain 2 of 2) above
With B11, the “Human pKal ELISA (T/B)” value was 8.8 T/B (target signal / background signal). On the same count and under the same terms, the result for B12 reads 11.7 T/B (target signal / background signal). Consider B13, for which the “Human pKal ELISA (T/B)” value is 15.5 T/B (target signal / background signal). Still for that read-out and setting: in the case of B14 it was 23.4 T/B (target signal / background signal); in that of B15, 44.7 T/B (target signal / background signal). On the same count and under the same terms, in the case of B16 it was 3.3 T/B (target signal / background signal); in that of B17, 18.5 T/B (target signal / background signal); in that of B18, 28.2 T/B (target signal / background signal).

For the molecule B19, the “Human pKal ELISA (T/B)” value was 11.9 T/B (target signal / background signal). Turning to B20, the “Human pKal ELISA (T/B)” value is 14.4 T/B (target signal / background signal). Turning to B21, the “Human pKal ELISA (T/B)” value is 16 T/B (target signal / background signal).
